Target: the molecule itself
Assay: SEC; 24 mL Superdex-200, 150 mM NaCl, 50 mM Tris-HCl pH 8.0; MW estimated from a linear fit of MW standards

B1: 6×His-PqsE (wild type, P. aeruginosa) (enzyme)
chain: MLRLSAPGQLDDDLCLLGDVQVPVFLLRLGEASWALVEGGISRDAELVWADLCRWVADPSQVHYWLITHKHYDHCGLLPYLCPRLPNVQVLASERTCQAWKSESAVRVVERLNRQLLRAEQRLPEACAWDALPVRAVADGEWLELGPRHRLQVIEAHGHSDDHVVFYDVRRRRLFCGDALGEFDEAEGVWRPLVFDDMEAYLESLERLQRLPTLLQLIPGHGGLLRGRLAADGAESAYTECLRLCRRLLWRQSMGESLDELSEELHRAWGGQSVDFLPGELHLGSMRRMLEILSRQALPLD
notes: also called WT PqsE
stoichiometry N: 2

Reference: paper PMC12077149 (mBio, 2025)
